{
  "source": "the nanobody polyreactivity screen of Harvey et al. (2022)",
  "data": [
    {"assay": "yeast display, Sf9 membrane polyspecificity reagent, FACS + sequencing; frameworks hold sequencing errors", "procedure,_shortened": "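A synthetic nanobody library was expressed on Saccharomyces cerevisiae BJ5465 by galactose induction for 36–48 hours. The library was stained for 1 hour at 4 °C with 10% biotinylated, detergent-solubilized Sf9 membrane reagent and enriched with streptavidin microbeads before FACS. Low and high (top ~1%) gates were set on anti-HA fluorescence for expression and streptavidin fluorescence for reagent binding, and each polyreactivity label reflects the gate of origin.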", "values": [
      {"sequence": "QVQLVESGGGLVQAGGSLRLSCAASGSTLAKKAMGWYRQEPGKERELVAAISKNGGTTYYADSVKGRFTISRDNAKNTVYLQMNSLKPEDTAVYYCAVSIWGWFASGFDYWGQGTQVTVSS", "polyreactivity (PSR sort gate)": "high polyreactivity"},
      {"sequence": "QVQLVESGGGLVQAGGSLRLSCAASGFTFNDYAMGWYRQAPGKARELVAAIEWYGGRTYYADSVKGRFTISRDHAKNTDYFHMTSLKPVATAVYYCAAVLYSRLDWYRLDYWGQGTQVTVSS", "polyreactivity (PSR sort gate)": "low polyreactivity"},
      {"sequence": "QVQLVESGGGLVQAGGSLRLSCAASAGTFNHYAMGWSRQEPGKERELVASITNGASTYYADSVKGRFTISRDNAKNTVYLQMNILKPEDTAVYYCAKRGRVGKYRYEYWGQGTLVTVSS", "polyreactivity (PSR sort gate)": "low polyreactivity"},
      {"sequence": "QVQLVESGGGLVQAGGSLRLSCAASGFIFYRYAMGWYRQAPGKERELVARISWNGGITYYADSVKGRFTISRDNAKNTVYLQMNILKPEDTAVYYCNKPDPYGLYTYEYWGQGTQVTVSS", "polyreactivity (PSR sort gate)": "low polyreactivity"},
      {"sequence": "QVQLVESGGGLVQAGGSLRLSCAASGLTFVKNAMGWYRQAPGKDRELVATISSGGSTNYADSVKGRFTISRDNAKNTVYLQMNSLKPEDTAVYYCNKDITGVLLWIWWDRYDYWGQGTQVTVSS", "polyreactivity (PSR sort gate)": "high polyreactivity"},
      {"sequence": "QVQLVESGGGLLHAGGSLRLSCAASGRTFPSYAMGWYRQAPGKERELVAAISSRGSRTYYADSVKGRFTISRDNAKNTVYLQMYSLKPEDTAVYYCAAKNLWTRKSRYDYWGQGTQVTVSS", "polyreactivity (PSR sort gate)": "high polyreactivity"},
      {"sequence": "QVQLVESGAGLVHAGGSLRLSCAASGLIYVNAMGWYRQAPGKERDFVAAITYSTGSTYYADSVKGRYTISRDNAKNTVYLQMNSLKPEDSAVYYCATDEHSSGRTPYDYWVQGTQVTVSS", "polyreactivity (PSR sort gate)": "low polyreactivity"},
      {"sequence": "QVQLVESGGGLVQAGGSLRLSCAASGITFLNYAMGWYRQAPGKERELVAAISWSGGRTYYADSVKGRFTISRDKGKNTVYLQMNSLKPEDTAVYYCAADRGVNSYGYWGQGTQVTVSS", "polyreactivity (PSR sort gate)": "high polyreactivity"},
      {"sequence": "QVQLVESGGGLVQAGGSLRLSCAASGFTFPYNGMGWYRQAPGKERELVASISWSGASTYYADSVKGRFTISRDNAKNTVYLQMNSLKPEDTAVYYCASDPGYYSWGSSQDDYWGQGTQVTVSS", "polyreactivity (PSR sort gate)": "low polyreactivity"},
      {"sequence": "QVQLVESVGGLVQAGGSLRLSCAASGFIFTHYAMGWYRQAPGKERELVAAISSGGSTYYADSVKGRFTISRDNAKNTVYLQMNSLKPEDTAVYYCAAVWPWRYYATGENYWGQGTHVTVSS", "polyreactivity (PSR sort gate)": "high polyreactivity"},
      {"sequence": "QVQLVESGGGLVQAGGSLRLSCAASGFIFANNAMGWYRQAPGKEREWVAAITSRGGGTYYADSVKGRFTISRDNAKNTVYLQMNCLKPEDTAVYYCAVRTYRFRHWPKYDYWGQGNQVTVSS", "polyreactivity (PSR sort gate)": "high polyreactivity"},
      {"sequence": "QVQLVESGGGLVQAGGSLRLSCAASGFIFNKYAMGWYRQAPGKERELVATIRRDGSTNYADSVKGRFTISRDNAKNTVYLQMNSQKPEDTAVYYCAVRPYYWSRDYYWGQGTQVTVSS", "polyreactivity (PSR sort gate)": "high polyreactivity"},
      {"sequence": "QVQLVESGGGLVQAGGSLRLSCAASGSTFVAYAKGWYRQAPGKETEWDASISGSGGTTNYADSVKGRFTISRDNAKNTVYLQMNSLKPEDTAVYYCARRYYSVKSRYALNSWGQGTQVTVSS", "polyreactivity (PSR sort gate)": "high polyreactivity"},
      {"sequence": "QVQLVESGGGLVQAGGSLRLSCAASGRTFRYNAMGWYRQAPGKERELVAGITYYGGSTSYADSVKGRFTISRDNAKNTVYLQMNSLKPEDTEVYYCNVVYNYYGRFGSWGQGTQVTVSS", "polyreactivity (PSR sort gate)": "high polyreactivity"},
      {"sequence": "QVQLVESGGGLVQAGGSLRLSCAASGSTFYIYAMGWYRQATGKERELVAAIDWNDGSTYYADSVKGRFTISRDNAKNTVYLEMHSLKPEDTAVYYCAAAIYIYRDGTYDYWGQGTQETVSS", "polyreactivity (PSR sort gate)": "high polyreactivity"},
      {"sequence": "KVQLVESGGGLVQAGGSLRLSCAASGIIFFPYAMAWYRQAPGKERELVASINISDSSTYYADSVKGRFTISRDNAKKTVYLQMNSLKPEDTAVYYGAADNRGDSWYWDGYWGQGTQVTVSS", "polyreactivity (PSR sort gate)": "low polyreactivity"},
      {"sequence": "QVQLVESGGGLVQAGGSLRLSCAASGRIFGIYAMGWYRQAPGKERELVASITGSSGSTNYADSVKGRFTISRDNAKNTVYLQMNSLKPEDTAVYYCAADIPSYYWWRAYDYWGQGTQVTVSS", "polyreactivity (PSR sort gate)": "low polyreactivity"},
      {"sequence": "QVQLVESGGGLVQAGGSLRLSCAASGRTFVFNAMGWYRQAPGKERELVAAISRSGGSTYYADSVKGRFTISRDNAKNTVYLQMNSLKTEDTAVYYCAADTPYLRRRLGMDYWGQGTQVTVSS", "polyreactivity (PSR sort gate)": "high polyreactivity"},
      {"sequence": "QVQLVESGGGLVQAGGSLRLSCAASGFIFNTMGWYRQAPGKERELVATISWSDGSTYYADSVKGRFTISRDNAKNTVYLQMNSLKPEDTAVYYCAADSRPWGSSMDSWGQGTQVTVSS", "polyreactivity (PSR sort gate)": "low polyreactivity"},
      {"sequence": "QVQLVESGGGLVQAGGSLRLSCAASGIIFRRNAMGWYRQAPGKERELVATISRSGGSTYYADSVKGRFTISRYNAKNTVYLQMNSLKPEDTAVYYCNTLYPRPYAINPRDYWGQGTQVTVSS", "polyreactivity (PSR sort gate)": "high polyreactivity"},
      {"sequence": "QVHLVESGVGLVQAGGSLRLSCAASGITFGYYAMGWYRQAPGKERENVAAITRRGGSTYYADSVKGRFTISRDNAKNTVYLQMNSLKPVDTAVYYCAAVSYRYWFIEDNYWGQGTQVTVSS", "polyreactivity (PSR sort gate)": "high polyreactivity"},
      {"sequence": "QVQLVESGGGLVQAGGSLRLSCAASGRIFYSYAMGWYRQAPGKEREFVAAISRSGARTYYADSVKGRFTISRDNAKNTVYLQMNSLKPEDTAVYYCAADDFSTVEYDYWGQGTQVTVSS", "polyreactivity (PSR sort gate)": "low polyreactivity"},
      {"sequence": "QVQLVESGGGLVQAGGSLRLSCAASGRIFTLYAMGWYRQAPGKERELVAGISRSGGSTYYADSVKGRFTISRDNAKNTVYLQMNSLKPEDTAVYYCNAVPIYYAWRRNKPFDYWGQGTQVTVSS", "polyreactivity (PSR sort gate)": "low polyreactivity"},
      {"sequence": "QVQLVESGGGLVQAGGSLRLSCAASGRTFIINTMGWSRQATGTERELVAAISKNGATTNYADSVKGRFTISRDNAKNTVYLQMNSLKPEDTAVYYCNARYSGYLRLDYWGQGTQVTVSS", "polyreactivity (PSR sort gate)": "low polyreactivity"},
      {"sequence": "QVRLVESGGGLVQAGGSLRLSCAASGSILDINAMGWYRQAPGKERELVASISWTGGHTYYADSVKGRFTISRDNAKNTVYLQMNSLKPEDTAVYDCAATHQETVYYFLSIFDYWGQGTQVTVSS", "polyreactivity (PSR sort gate)": "low polyreactivity"},
      {"sequence": "QVQLVESGGGLVQAGGSLRLSCAASGSTFWGYAMGWSRPAPGKERELVATITTGGGGTYYADSVKGRFTISRDNAKNTVYLQMNSLKPEDTAVYYCAARLRDGRTPRTEYDYWGQGTQVTVSS", "polyreactivity (PSR sort gate)": "low polyreactivity"},
      {"sequence": "QVQLVESGGGLVQAGGSLRLSFAASGSTFTPNVMGWYRQAPGKERELVAAINSSGGSTFYADSVKGRFTISRDNANNTVYLQMNSLKPEDTAVYYCAASWHTPTVYDEYYYWGQGTQVNVSS", "polyreactivity (PSR sort gate)": "low polyreactivity"},
      {"sequence": "QVQLVESGGGLVQAGGSLRLSCAASGRTFYSYAMGWYRQAPGTEREFVAAINWSGTSTYADSVKGRFTISRDNAKNTVYLQMNSLKPEDTAVYYCAKTYRTLVRYWGQPFGYWGQGTQVTVSS", "polyreactivity (PSR sort gate)": "high polyreactivity"},
      {"sequence": "QVQLVESGGGLVQAGGILRLSCAASGFTLLPYAMGWYTQAPGKERELVAAISRRGVSTYYADSVKGRFTLSRDNAKNTVYLPMNSLNPQDTAVNYCAADSYSRATVQYEYWGQCTQVTVSS", "polyreactivity (PSR sort gate)": "high polyreactivity"},
      {"sequence": "QVQLVESGGGLVQAGGSLRLSCAASGVIFTFYAMGWYRQAPGKEREFVASIDWGDGSTYYADSVKGRFTISRDNAKNTVYLQMNSLKPEDTAVYYCAHDSDGYVCDTEYDYWGQGTQVTVSS", "polyreactivity (PSR sort gate)": "low polyreactivity"},
      {"sequence": "QVQLVESGGGLVQAGGSLRLSCAASGRIFGVNAMGWYRQAPGKERELVAGITTSGGSTYYADSVKGRFTISRDNAKNTVYLQMNSLKPEDTAVYYFNGLTRRWYSLRSYDYWGQGTQVTVSW", "polyreactivity (PSR sort gate)": "high polyreactivity"}
    ]}
  ]
}
